Assay results reported in patent US20240270854A1 (Stanford University, published 2024).

How the values were obtained:
[1] = target: BMPR1a on skeletal stem cells; assay: cell-based or functional assay
[2] = target: BMPR2 on skeletal stem cells; assay: cell-based or functional assay
BMPR2 on skeletal stem cells, sequence (Q13873 whole entry): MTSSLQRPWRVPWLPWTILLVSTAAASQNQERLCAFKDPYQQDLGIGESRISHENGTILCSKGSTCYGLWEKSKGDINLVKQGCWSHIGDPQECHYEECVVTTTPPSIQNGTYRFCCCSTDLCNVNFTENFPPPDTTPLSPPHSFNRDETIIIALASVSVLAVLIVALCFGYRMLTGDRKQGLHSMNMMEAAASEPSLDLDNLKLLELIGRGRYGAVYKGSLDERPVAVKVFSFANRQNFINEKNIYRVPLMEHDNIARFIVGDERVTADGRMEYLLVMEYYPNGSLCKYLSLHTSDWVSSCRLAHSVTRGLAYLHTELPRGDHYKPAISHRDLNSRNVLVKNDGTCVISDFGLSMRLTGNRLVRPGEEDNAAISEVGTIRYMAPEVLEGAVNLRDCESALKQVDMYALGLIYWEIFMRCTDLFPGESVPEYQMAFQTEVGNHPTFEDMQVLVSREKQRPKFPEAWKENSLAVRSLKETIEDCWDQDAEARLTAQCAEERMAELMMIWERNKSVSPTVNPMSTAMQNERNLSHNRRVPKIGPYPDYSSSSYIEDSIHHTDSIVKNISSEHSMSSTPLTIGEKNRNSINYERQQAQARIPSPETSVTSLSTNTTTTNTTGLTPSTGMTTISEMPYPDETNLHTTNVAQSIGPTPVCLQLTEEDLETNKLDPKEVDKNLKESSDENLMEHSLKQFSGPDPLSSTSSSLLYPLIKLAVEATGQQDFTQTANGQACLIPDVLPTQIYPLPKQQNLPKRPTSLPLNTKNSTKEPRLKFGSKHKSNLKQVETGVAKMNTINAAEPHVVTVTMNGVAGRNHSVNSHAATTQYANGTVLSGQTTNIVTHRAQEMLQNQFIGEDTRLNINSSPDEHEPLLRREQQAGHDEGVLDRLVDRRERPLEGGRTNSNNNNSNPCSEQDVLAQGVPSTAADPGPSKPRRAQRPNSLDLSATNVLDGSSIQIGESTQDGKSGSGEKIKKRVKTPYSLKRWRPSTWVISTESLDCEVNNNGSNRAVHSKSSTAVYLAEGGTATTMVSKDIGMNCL

BMPR1a on skeletal stem cells, sequence (P36894 whole entry): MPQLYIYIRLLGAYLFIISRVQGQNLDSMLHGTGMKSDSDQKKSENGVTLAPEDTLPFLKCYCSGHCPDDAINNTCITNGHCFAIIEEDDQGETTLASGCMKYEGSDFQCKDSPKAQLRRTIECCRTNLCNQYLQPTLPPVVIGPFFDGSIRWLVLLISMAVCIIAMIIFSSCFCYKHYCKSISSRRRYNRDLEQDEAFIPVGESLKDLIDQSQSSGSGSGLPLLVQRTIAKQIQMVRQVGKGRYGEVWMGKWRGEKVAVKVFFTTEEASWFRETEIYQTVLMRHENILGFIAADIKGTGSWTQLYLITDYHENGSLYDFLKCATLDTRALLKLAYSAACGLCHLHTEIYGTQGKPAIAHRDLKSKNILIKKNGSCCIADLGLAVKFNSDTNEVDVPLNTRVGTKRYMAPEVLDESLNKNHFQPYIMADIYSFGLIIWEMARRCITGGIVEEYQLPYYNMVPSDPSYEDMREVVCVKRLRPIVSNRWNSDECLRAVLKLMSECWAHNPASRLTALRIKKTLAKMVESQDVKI

B1: (NB1-4)-(NB2-43) (bispecific antibody)
chain: QVQLQESGGGLVQAGGSLRLSCAASGTIFYFSIMGWYRQAPGKEREFVAGIGVGSNTYYADSVKGRFTISRDNAKNTVYLQMNSLKPEDTAVYYCAAFDSISGELQYWGQGTQVTVSSGGGGSGGGQVQLQESGGGLVQAGGSLRLSCAASGSISSATVMGWYRQAPGKEREFVAAITAGGTTNYADSVKGRFTISRDNAKNTVYLQMNSLKPEDTAVYYCAVVVFTSQDRIYYYRYWGQGTQVTVSS
Question: Which results are given for B1?
Answer: p-smad1/5 signaling in SSCs after 30 minutes treatment [1]: 3 folds higher activation than control; p-smad1/5 signaling in SSCs after 30 minutes treatment [2]: 3 folds higher activation than control
